Measured values reported in the supplement of paper PMC12455559.
± gives the standard deviation of the averaged measurements.

Tests used:
[1] = melting temperature (DSF); higher = more thermostable
Procedure, shortened: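 Enzymes made in E. coli C41(DE3) were nickel-bead purified and cut free with SUMO protease before testing. Differential scanning fluorimetry gave each melting temperature. For this, 5 μL 5X Sypro Orange was added to 45 μL enzyme (0 to 0.3 mg/mL) in sealed PCR plates, and a Bio-Rad CFX96 read fluorescence from 25 °C over 250 cycles of 0.3 °C each, ramping at 0.3 °C/s.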

[2] = purified protein yield per well (BCA); higher = higher soluble expression
Procedure, shortened: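 Candidate enzymes were made in 2 mL autoinduction cultures of E. coli C41(DE3) with 100 µg/mL kanamycin, at 37 °C for 2 h and then 18 °C for 40 h, and purified with Ni-charged magnetic beads and SUMO protease cleavage. The Pierce Rapid Gold BCA kit gave purified protein yield per well. Values lower than 25 ug (0.1 mg/mL) are below the detection threshold.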

[3] = PET hydrolysis, aromatic products released after 48 h (umol product/mg enzyme); higher = more PET depolymerization activity
Procedure, shortened: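 The measure of PET hydrolysis activity is aromatic product released into the supernatant, given per mg enzyme. Nickel-purified, SUMO-cleaved enzyme without tag was added at 5 μg (50 μL) to 3.5 mg amorphous PET film or crystalline PET powder in 450 μL of citrate, phosphate or glycine buffer spanning pH 4.5 to 8.5. After 48 h at 40 or 60 °C in sealed plates without shaking, absorbance at 260 and 280 nm was taken against buffer blanks.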

[4] = substrate: aFilm, 40 °C, pH 4.5
[5] = substrate: aFilm, 40 °C, pH 5.5
[6] = substrate: aFilm, 40 °C, pH 6.5
[7] = substrate: aFilm, 40 °C, pH 7.5
[8] = substrate: aFilm, 60 °C, pH 4.5
[9] = substrate: aFilm, 60 °C, pH 5.5
[10] = substrate: aFilm, 60 °C, pH 6.5
[11] = substrate: aFilm, 60 °C, pH 7.5
[12] = substrate: cryPow, 40 °C, pH 4.5
[13] = substrate: cryPow, 40 °C, pH 5.5
[14] = substrate: cryPow, 40 °C, pH 6.5
[15] = substrate: cryPow, 40 °C, pH 7.5
[16] = substrate: cryPow, 60 °C, pH 4.5
[17] = substrate: cryPow, 60 °C, pH 5.5
[18] = substrate: cryPow, 60 °C, pH 6.5
[19] = substrate: cryPow, 60 °C, pH 7.5

RPAAPADSPYQRGPDPTVSSVAAQRGTFATAELTVPPGNGFNGGKIYYPTDTSQGTWAAVAAVPGYTAKWAAEGAWMGPWLASFGFVVIGIDTNSPNDYDTARGTQLLAALDYLTQRSPVRDRVDPGRLGVIGHSMGGGGAINAAERRPSLKAALPLAPFSPSQNLSTLRVPTMIMGARDDGTVTPSYLNGLYGGMPATTPSAYIELTSGGHGFPTWGNSNVTRRTIPWLKIFLDEDTRYTQFLCPSLPDRTGISRSQVTCGSVPGDGTTPPPATGRQVVGAASGRCLDVPGSSQANGTQLQLWDCLDQAGQKWARTDAGELRVLGGKCLDAEASGTAPGTRAVVWDCHGGTNQRWNVTPDGTITSAQSGLCLDAYNAGTANGTRTVLWTCNGGSNQRWTWR [TEP102]
melting temperature [1]: 60.4 C | purified protein yield per well [2]: 252 µg | PET hydrolysis [3, 4]: < 3 | PET hydrolysis [3, 5]: < 3 | PET hydrolysis [3, 6]: < 3 | PET hydrolysis [3, 7]: < 3 | PET hydrolysis [3, 8]: < 3 | PET hydrolysis [3, 9]: < 3 | PET hydrolysis [3, 10]: < 3 | PET hydrolysis [3, 11]: < 3 | PET hydrolysis [3, 12]: 5.5 ± 0.71 | PET hydrolysis [3, 13]: 13 ± 2.8 | PET hydrolysis [3, 14]: 25.5 ± 0.71 | PET hydrolysis [3, 15]: 26 ± 1.4 | PET hydrolysis [3, 16]: < 3 | PET hydrolysis [3, 17]: < 3 | PET hydrolysis [3, 18]: < 3 | PET hydrolysis [3, 19]: < 3

RPASAQDNPYERGPAPTVSSVAAQRGTFATAELTVPPGNGFNGGKIYYPTDTSLGTWGAVAAVPGYTAKWAAEGAWMGPWLASFGFVVIGIDTNSPNDYDTARGTQLLAALDYLTQKSAVRDRVDPNRLGVIGHSMGGGGAISAAVRRPSLKAALPLAPFSPSQNLSTLRVPTVIMGARDDGTVTPSYLDGLYGGMPAGTQSAFIELSSGGHGFPTWGNSNVTRRMIPWLKIFLDNDTRYTQFLCPSLADTSGVSRSKLKCPYVPPGGTTPPPPSGGPIVGAASGRCLEVPNSSQTNGTQVQLWDCLDRAGQKWTRTAAGELRVYGTKCLDAEASGTSPGTRVVIWDCHGGQNQQWNVNSNGTITSARSGLCLDAYNAGTGNGTQGVLWNCNGGANQRWALG [TEP024]
melting temperature [1]: 61 C | purified protein yield per well [2]: 368 µg | PET hydrolysis [3, 4]: < 3 | PET hydrolysis [3, 5]: < 3 | PET hydrolysis [3, 6]: < 3 | PET hydrolysis [3, 7]: < 3 | PET hydrolysis [3, 8]: < 3 | PET hydrolysis [3, 9]: < 3 | PET hydrolysis [3, 10]: < 3 | PET hydrolysis [3, 11]: < 3 | PET hydrolysis [3, 12]: < 3 | PET hydrolysis [3, 13]: 4.5 ± 0.71 | PET hydrolysis [3, 14]: 11.5 ± 2.1 | PET hydrolysis [3, 15]: 14.5 ± 0.71 | PET hydrolysis [3, 16]: < 3 | PET hydrolysis [3, 17]: < 3 | PET hydrolysis [3, 18]: < 3 | PET hydrolysis [3, 19]: < 3

RPASAQDNPYERGPDPTVSSVAAQRGTFATAEVTVPPGNGFNGGKIYYPTDTSKGTWGAVAAVPGYTAKWAAEGAWMGPWLASFGFVVIGIDTNSPNDYDTARGTQLLAALDYLTQKSPVRDRVDPNRLGVIGHSMGGGGAISAAERRPSLKAALPLAPFSPSQNLSSLRVPTMIMGARDDGTVTPSYLNGLYAGMPAATPSAYIELTSGGHGFPTWGNSNVTRRTIPWLKIFLDNDTRYTQLLCPSPADRTGVSRSQVKCAYVPGGGTTPPPPSSGQIVGAASARCLDVPNSSQTNGTQLQLWDCLDQTSQKWARTDAGELRVYGNKCLDAEASGTSAGTRAIIWDCHGGQNQRWNVNANGTITSARSGLCLDANNAGTANGTQAILWTCNGGSNQRWTLR [TEP097]
melting temperature [1]: 64.6 C | purified protein yield per well [2]: 270 µg | PET hydrolysis [3, 4]: < 3 | PET hydrolysis [3, 5]: < 3 | PET hydrolysis [3, 6]: < 3 | PET hydrolysis [3, 7]: < 3 | PET hydrolysis [3, 8]: < 3 | PET hydrolysis [3, 9]: < 3 | PET hydrolysis [3, 10]: < 3 | PET hydrolysis [3, 11]: < 3 | PET hydrolysis [3, 12]: 8 | PET hydrolysis [3, 13]: 13 ± 1.4 | PET hydrolysis [3, 14]: 31 ± 7.1 | PET hydrolysis [3, 15]: 30.5 ± 2.1 | PET hydrolysis [3, 16]: < 3 | PET hydrolysis [3, 17]: 4.5 ± 0.71 | PET hydrolysis [3, 18]: 4.5 ± 0.71 | PET hydrolysis [3, 19]: 2 ± 2.8

SAQVTRQAAGSYARGPAPTLAGIRAALGPFAYSTVTVTAAQAGGAFGGGTIYYPDDTSQGTFGGVAAVPGYQSAEKAVAWLGPRLASQGFVVITIATNGLTDQPTARGKQLLGALDYLTAQSPAAVRQRLDPNRLAVTGHSMGGGGTLYAAWTRPSLKAAVPLAPWHTIKNWSGITVPTLVQGGTQDTTAQVGTFAEPIYQSLTGARERAYAEIADAAHGTFVRENPLIGALEVAWLKRFVDDDGRYEQFLCPAPADSELTEYRDSCPSS [DP009]
melting temperature [1]: 46.9 C | purified protein yield per well [2]: 165 µg | PET hydrolysis [3, 13]: 4 | PET hydrolysis [3, 14]: 5 | PET hydrolysis [3, 15]: 6 | PET hydrolysis ([3]; substrate: cryPow, 40 °C, pH 8.5): 10 | PET hydrolysis [3, 17]: < 3 | PET hydrolysis [3, 18]: < 3 | PET hydrolysis [3, 19]: < 3 | PET hydrolysis ([3]; substrate: cryPow, 60 °C, pH 8.5): < 3

SNPAPDTGSGDGSSSQYQIGPDPTVSFLEASSGPFSVRTSNVSSLVSGFGGGTIHYPTGVNRPMAAIVVIPGFVSAESSIDWWGPKLASYGFVVMTIGTNSGFDQPPSRARQINNALDYLVAQNTNSRSPVNGMIDTNRLGAMGWSMGGGGTLRVAEEGRIKAAIPLAPWDTTSFRSNRTPTLIFACGSDSIAPVRTHASPFYNQIPTSTPKIFIEINRGNHYCANGGNSNNATLGRLGVAWMKRFLDEDRRYSQFLCGPRHTSDRNISESRDTCNF [ESM186]
melting temperature [1]: 53.8 C | purified protein yield per well [2]: 43 µg | PET hydrolysis [3, 12]: < 3 | PET hydrolysis [3, 13]: < 3 | PET hydrolysis [3, 14]: 3 | PET hydrolysis [3, 15]: 13
